The text below walks through data of article PMC9311411, “A Morphing [4Fe‐3S‐nO]‐Cluster within a Carbon Monoxide Dehydrogenase Scaffold” (Angewandte Chemie (International Ed. in English), 2022).

Substrate in the data set: NO
Kind of data set: reoxidation of reduced methyl viologen. In kind it is biochemical, Carboxydothermus hydrogenoformans. The settings on record: 0-100 mM NH2OH; reduced methyl viologen as artificial electron donor; two-electron reduction to ammonia and water. The source says: reoxidation of reduced methyl viologen on CooS‐V Ch | hyperbolic dependency on the NH2OH concentration (Figure S2‐C)

B1: CooS‐V Ch (Carboxydothermus hydrogenoformans Z-2901) (protein)
chain: MATKTSIHPSVNELYQRLAEDQLSNCFDRFDPQEKIRCNYCELGVSCQLCSNGPCRINEKVGATLGVCGINADGMAMRYMLLRNVMGTSTYTYHAYEAYKTLKMTALGNTPFTITDKDKLYQMAKDLELNTEGKPEDVAVRLSDFLIWELYRDYDEPGKMIEVYAPLKRKEVWRKLGIYPAGPLHELKDAAASCLTNVDGDYVSLATKGLRLGLSCIYGAQIGLELVQDILFGTGMPHEMDVDLGIFDADYINIVFNGHEPFVGVALILAAKEAVNQDKAKAAGAKSLRIYGSIESGQEVVQRFQKDEVFRGLTGNWLTIEPMLATGAVDVLAMDMNCSPPNLGPLAEKYGATLVSVSRLVRFPGIHHFLDYKPSEVREIAQKIIDIAVDSFKNKRHGKITPKIPANIQKAITGFTPEAILKALGGSINPLIEVIKAGKIKGAVGLINCTTLKNGPQDYVTVNLAKELIKRDILILSGGCGNHALEVAGLCNLDAINLAGPGLSEVCRNLNIPPVLSFGTCTDTGRISLVVTALANALNVDTADLPVAVTAPMYMEQKATIDALFALAYGLYTHVAPDPPVMGAPNLVKLLTRDLPSITGGRIAVGSDPVKVADDILAHINDRRAKLGI
notes: full length, 629 residues; homodimer, apparent 118 kDa; [2Fe-2S], [4Fe-4S] and Fe/S/O hybrid cluster, no Ni
Turning to B1, the Km is reported as 7.6 ± 2.0 mM and the kcat was 0.13 s–1.

The Km is the substrate concentration at which the rate is half of its maximum.
